T1: BoNT/F1 (proteolytic BoNT/F) (Clostridium botulinum, UniProt A7GBG3 1-1278)
T1 sequence: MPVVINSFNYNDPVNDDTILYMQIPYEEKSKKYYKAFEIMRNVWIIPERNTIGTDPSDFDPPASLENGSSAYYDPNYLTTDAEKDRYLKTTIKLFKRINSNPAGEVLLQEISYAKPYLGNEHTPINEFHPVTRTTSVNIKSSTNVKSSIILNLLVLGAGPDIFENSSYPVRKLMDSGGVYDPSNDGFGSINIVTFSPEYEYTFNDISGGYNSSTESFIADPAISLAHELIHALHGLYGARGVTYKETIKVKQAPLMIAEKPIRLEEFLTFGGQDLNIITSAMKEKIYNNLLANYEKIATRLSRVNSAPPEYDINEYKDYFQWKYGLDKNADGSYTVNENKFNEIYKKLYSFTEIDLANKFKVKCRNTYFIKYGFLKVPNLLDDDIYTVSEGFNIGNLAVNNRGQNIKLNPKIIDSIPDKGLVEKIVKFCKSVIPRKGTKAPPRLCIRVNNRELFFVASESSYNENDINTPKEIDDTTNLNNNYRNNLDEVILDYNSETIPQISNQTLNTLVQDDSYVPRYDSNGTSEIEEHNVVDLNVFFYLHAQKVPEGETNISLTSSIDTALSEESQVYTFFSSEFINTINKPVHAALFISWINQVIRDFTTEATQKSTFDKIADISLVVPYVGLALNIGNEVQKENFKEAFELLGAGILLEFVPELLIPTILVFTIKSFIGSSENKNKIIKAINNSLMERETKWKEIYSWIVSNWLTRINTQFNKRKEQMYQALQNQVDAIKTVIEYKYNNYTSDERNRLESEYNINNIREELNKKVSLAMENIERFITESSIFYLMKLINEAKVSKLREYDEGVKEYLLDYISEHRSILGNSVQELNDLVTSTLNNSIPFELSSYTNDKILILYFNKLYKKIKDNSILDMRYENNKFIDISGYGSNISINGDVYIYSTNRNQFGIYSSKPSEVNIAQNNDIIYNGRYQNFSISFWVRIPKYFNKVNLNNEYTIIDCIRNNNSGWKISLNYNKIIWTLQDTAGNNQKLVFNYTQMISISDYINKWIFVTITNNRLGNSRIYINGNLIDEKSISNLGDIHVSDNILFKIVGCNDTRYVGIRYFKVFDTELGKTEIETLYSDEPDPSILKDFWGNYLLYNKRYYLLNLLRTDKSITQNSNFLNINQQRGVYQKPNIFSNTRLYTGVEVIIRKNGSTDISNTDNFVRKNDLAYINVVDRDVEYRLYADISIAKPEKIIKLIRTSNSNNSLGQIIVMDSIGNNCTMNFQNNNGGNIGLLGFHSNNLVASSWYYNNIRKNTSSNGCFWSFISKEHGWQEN

T2: BoNT/F 202F (Clostridium botulinum, UniProt P30996 1-1274)
T2 sequence: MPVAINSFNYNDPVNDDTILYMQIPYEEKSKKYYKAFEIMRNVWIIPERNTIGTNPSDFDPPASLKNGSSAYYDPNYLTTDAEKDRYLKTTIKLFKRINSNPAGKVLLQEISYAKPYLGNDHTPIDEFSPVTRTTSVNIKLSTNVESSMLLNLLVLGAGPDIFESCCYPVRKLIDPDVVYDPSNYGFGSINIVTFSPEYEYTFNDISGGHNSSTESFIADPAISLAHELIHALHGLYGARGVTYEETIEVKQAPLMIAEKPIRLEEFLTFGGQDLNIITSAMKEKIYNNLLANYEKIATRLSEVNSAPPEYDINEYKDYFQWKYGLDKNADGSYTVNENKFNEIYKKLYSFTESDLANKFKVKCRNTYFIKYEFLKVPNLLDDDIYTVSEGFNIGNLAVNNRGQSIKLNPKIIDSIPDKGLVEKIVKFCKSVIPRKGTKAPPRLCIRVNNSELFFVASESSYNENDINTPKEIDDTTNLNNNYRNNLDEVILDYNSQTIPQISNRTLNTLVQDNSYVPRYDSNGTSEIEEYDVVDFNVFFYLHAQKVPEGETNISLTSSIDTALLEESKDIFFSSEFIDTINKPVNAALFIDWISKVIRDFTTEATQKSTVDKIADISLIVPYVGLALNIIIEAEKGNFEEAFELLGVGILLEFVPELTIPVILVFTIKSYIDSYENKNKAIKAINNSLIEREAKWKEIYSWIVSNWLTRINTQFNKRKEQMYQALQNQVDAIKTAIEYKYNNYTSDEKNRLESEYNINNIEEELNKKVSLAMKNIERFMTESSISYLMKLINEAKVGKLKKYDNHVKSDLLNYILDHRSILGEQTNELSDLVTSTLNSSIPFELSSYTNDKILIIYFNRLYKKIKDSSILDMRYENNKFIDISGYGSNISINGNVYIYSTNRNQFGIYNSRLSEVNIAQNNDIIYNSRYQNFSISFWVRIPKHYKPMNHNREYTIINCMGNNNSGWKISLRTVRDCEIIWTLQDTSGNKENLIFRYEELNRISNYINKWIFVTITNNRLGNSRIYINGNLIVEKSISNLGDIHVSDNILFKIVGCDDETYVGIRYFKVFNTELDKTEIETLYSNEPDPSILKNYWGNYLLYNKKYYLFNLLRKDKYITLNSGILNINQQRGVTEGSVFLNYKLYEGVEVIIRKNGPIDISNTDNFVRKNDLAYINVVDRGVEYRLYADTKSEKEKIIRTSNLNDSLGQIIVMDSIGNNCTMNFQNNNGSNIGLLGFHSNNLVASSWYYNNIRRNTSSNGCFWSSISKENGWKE


How the values were obtained:
[1] = molecular target: T1, BoNT/F1 (proteolytic BoNT/F); experiment: yeast scFv FACS
BoNT/F 202F = molecular target: T2, BoNT/F 202F; experiment: yeast scFv FACS

Binder	Kd [1] [pM]	binding result (BoNT/F 202F)
39H6 scFv (scFv, V domains shown) VH: EVQLVPSGGNLVQPGGSLRLSCAATGPIGSHWMTWVRQAPGQGLEWVANINLDGTEKFYVDSVKGRFTVSRDNRKSSVFLQMNNLRVDDTAVYYCARLQWGGYNGWLSPWGQGTLVTVSS VL: DIVMTQSPPSLSASVGDRVSLTCRASEYIGTSLNWYQQKPGKAPKLLIYAASALHSGVPSRFSGSGSGTDFTLTISGLQPEDFATYYCQQANDLPLTFGGGTKLEIK	526	binds
43D3 scFv (scFv, V domains shown) VH: EVQQVQSGGNLVQPGGSLRLSCAATGPIGSHWMTWVRQAPGQGLEWVANINLDGTEKFYVDSVKGRFTVSRDNRKSSVFLQMNNLRVDDTAVYYCARLQWGGYNGWLSPWGQGTLVTVSS VL: DIVMTQSPPSLSASVGDRVSLTCRASEYIGTSLNWYQQKPGKAPKLLIYAASALHSGVPSRFSGSGSGTDFTLTISGLQPEDFATYYCQQANDLPLTFGGGTKLENK	333	binds
41C2 scFv (scFv, V domains shown) VH: EVQQVQSGGNLVQPGGSLRLSCAATGPIGSHWMTWVRQAPGQGLEWVANINLDGTEKFYVDSVKGRFTVSRDNRKSSVFLQMNNLRVDDTAVYYCARLQWGGYNGWLSPWGQGTLVTVSS VL: DIVMTQSPPSLSASVGDRVSLTCRASEYIGTSLNWYQQKPGKAPKLLIYAASALHSGVPSRFSGSGSGTDFTLTISGLQPEDFATYYCQQTNDLPLTFGGGTKLEIK	355	binds
39D5.1 scFv (scFv, V domains shown) VH: EVQLVQSGGNLVQPGGSLRLSCAATGPIGSHWMTWVRQAPGQGLEWVASINLDGTEKFYVDSVKGRFTVSRDNRKSSVFLQMNNLRVDDTAVYYCARLQWGGYNGWLSPWGQGTLVTVSS VL: DIVMTQSPPSLSASVGDRVSLTCRASEYIGTSLNWYQQKPGKAPKLLIYAASALHSGVPSRFSGSGSGTDFTLTISGLQPEDFATYYCQQANDLPLTFGGGTKLEIK	1780	binds
41F7 scFv (scFv, V domains shown) VH: EVQLVPSGGNLVQPGGSLRLSCAATGPIGSHWMTWVRQAPGQGLEWVANINLDGTEKFYVDSVKGRFTVSRDNRKSSVFLQMNNLRVDDTAVYYCARLQWGGYNGWLSPWGQGTLVTVSS VL: DILMTQSPPSLSASVGDRVSLTCRASEYIGTSLNWYQQKPGKAPKLLIYAASALHSGVPSRFSGSGSGTDFTLTISGLQPEDFATYYCQQANDLPLTFGGGTKLEIK	566	binds
39A1 scFv (scFv, V domains shown) VH: EVQQVQSGGNLVQPGGSLRLSCAATGPIGSHWMTWVRQAPGQGLEWVANINLDGTEKFYVDSVKGRFTVSRDNRKSSVFLQMNNLRVDDTAVYYCARLQWGGYNGWLSPWGQGTLVTVSS VL: DIVMTQSPPSLSASVGDRVSLTCRASEYIGTSLNWYQQKPGKAPKLLIYAASALHSGVPSRFSGSGSGTDFTLTISGLQPEDFATYYCQQANDLPLTFGGGTKLEIK	588	binds
41E2 scFv (scFv, V domains shown) VH: EVQLVPSGGNLVQPGGSLRLSCAATGPIGSHWMTWVRQAPGQGLEWVANINLDGTEKFYVDSVKGRFTVSRDNRKSSVFLQMNNLRVDDTAVYYCARLQWGGYNGWLSPWGQGTLVTVSS VL: DIVMIQSPPSLSASVGDRVSLTCRASEYIGTSLNWYQQKPGKAPKLLIYAASALHSGVPSRFSGSGSGTDFTLTISGLQPEDFATYYCQQANDLPLTFGGGTKLEIK	584	binds

From patent publication US20220089784A1 (University of California, published 2022)
